Literature values, collected in paper PMC11932923.

Target: IL-36R (Homo sapiens) (UniProt Q9HB29)
Test: Biacore SPR

Chain of UniProt Q9HB29 (Q9HB29 20-575): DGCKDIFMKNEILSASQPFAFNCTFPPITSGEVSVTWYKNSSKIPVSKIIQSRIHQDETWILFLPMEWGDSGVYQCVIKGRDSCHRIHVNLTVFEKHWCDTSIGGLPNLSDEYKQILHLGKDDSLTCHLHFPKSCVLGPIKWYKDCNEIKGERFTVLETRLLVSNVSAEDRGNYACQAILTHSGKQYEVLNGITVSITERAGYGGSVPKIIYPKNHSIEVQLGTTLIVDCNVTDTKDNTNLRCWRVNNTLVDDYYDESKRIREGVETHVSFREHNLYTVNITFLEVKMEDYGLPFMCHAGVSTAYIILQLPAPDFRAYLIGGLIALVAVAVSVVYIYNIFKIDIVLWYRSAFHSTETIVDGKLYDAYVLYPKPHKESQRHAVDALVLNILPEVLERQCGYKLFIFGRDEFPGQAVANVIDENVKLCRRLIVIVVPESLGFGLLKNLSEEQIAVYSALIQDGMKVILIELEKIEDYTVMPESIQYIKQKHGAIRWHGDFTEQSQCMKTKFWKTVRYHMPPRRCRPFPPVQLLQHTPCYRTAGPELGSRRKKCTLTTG

Kd: 7 pM
Substance: IL-36β (N-terminally truncated) (from UniProt Q9NZH7)
